B1: Gamma-crystallin C, residues 4 to 79; numbered along this chain, P07315 (parent)
chain: ITFYEDRAFQGRSYETTTDCPNLQPYFSRCNSIRVESGCWMLYERPNYQGQQYLLRRGEYPDYQQWMGLSDSIRSC

± gives the uncertainty stated by the source.

Variants of B1 are the subject of the series. As to the kind of experiment: abundance fitness (aPCA) (normalised: wild type 0, dead -1); higher = more abundant; growth selection in yeast, the domain comes from the species named. As to conditions: Homo sapiens.
As for ITFYEDRAFQGRSYETTTDCPNLQPYFSRCNSIRVESGCWMLYERPNYQGQQYLLRRGEYPDYQQWMGLSDSIQSC [R74Q], the abundance fitness is -0.001 ± 0.1. Then ITFYEDRAFQGRSYETTTDCPNLQPYFSRCNSIRVESGCWMLYERPNYQGQQYLLRRGEYPDYQQWMGLSDSILSC [R74L], with 0.023 ± 0.049.

In the case of ITFYEDRAFQGRSYETTTDCPNLQPYFSRCNSIRVESGCWMLYERPNYQGQQYLLRRGEYPDYQQWMGLSDSIWSC [R74W], the abundance fitness turned out to be 0.119 ± 0.059. The result for ITFYEDRAFQGRSYETTTDCPNLQPYFSRCNSIRVESGCWMLYERPNYQGQQYLLRRGEYPDYQQWMGLSDSITSC [R74T] reads 0.12 ± 0.082. Then ITFYEDRAFQGRSYETTTDCPNLQPYFSRCNSIRVESGCWMLYERPNYQGQQYLLRRGEYPDYQQWMGLSDSIKSC [R74K], with -0.013 ± 0.12; and ITFYEDRAFQGRSYETTTDCPNLQPYFSRCNSIRVESGCWMLYERPNYQGQQYLLRRGEYPDYQQWMGLSDSIHSC [R74H], with -0.001 ± 0.11. Then ITFYEDRAFQGRSYETTTDCPNLQPYFSRCNSIRVESGCWMLYERPNYQGQQYLLRRGEYPDYQQWMGLSDSIYSC [R74Y], with 0.105 ± 0.14; and ITFYEDRAFQGRSYETTTDCPNLQPYFSRCNSIRVESGCWMLYERPNYQGQQYLLRRGEYPDYQQWMGLSDSIMSC [R74M], with 0.007 ± 0.082; and ITFYEDRAFQGRSYETTTDCPNLQPYFSRCNSIRVESGCWMLYERPNYQGQQYLLRRGEYPDYQQWMGLSDSINSC [R74N], with 0.107 ± 0.14. As to ITFYEDRAFQGRSYETTTDCPNLQPYFSRCNSIRVESGCWMLYERPNYQGQQYLLRRGEYPDYQQWMGLSDSIVSC [R74V], the abundance fitness was determined as 0.108 ± 0.053.

For ITFYEDRAFQGRSYETTTDCPNLQPYFSRCNSIRVESGCWMLYERPNYQGQQYLLRRGEYPDYQQWMGLSDSIPSC [R74P], the abundance fitness is -0.389 ± 0.099. The result for ITFYEDRAFQGRSYETTTDCPNLQPYFSRCNSIRVESGCWMLYERPNYQGQQYLLRRGEYPDYQQWMGLSDSIISC [R74I] reads 0.02 ± 0.076.

As to ITFYEDRAFQGRSYETTTDCPNLQPYFSRCNSIRVESGCWMLYERPNYQGQQYLLRRGEYPDYQQWMGLSDSIGSC [R74G], the abundance fitness stood at 0.022 ± 0.044. Regarding ITFYEDRAFQGRSYETTTDCPNLQPYFSRCNSIRVESGCWMLYERPNYQGQQYLLRRGEYPDYQQWMGLSDSIRST [C76T], the abundance fitness was -0.002 ± 0.15. The result for ITFYEDRAFQGRSYETTTDCPNLQPYFSRCNSIRVESGCWMLYERPNYQGQQYLLRRGEYPDYQQWMGLSDSIRSV [C76V] reads 0.061 ± 0.073. The result for ITFYEDRAFQGRSYETTTDCPNLQPYFSRCNSIRVESGCWMLYERPNYQGQQYLLRRGEYPDYQQWMGLSDSIRSD [C76D] reads -0.834 ± 0.13; that for ITFYEDRAFQGRSYETTTDCPNLQPYFSRCNSIRVESGCWMLYERPNYQGQQYLLRRGEYPDYQQWMGLSDSIRSA [C76A], 0.056 ± 0.078; that for ITFYEDRAFQGRSYETTTDCPNLQPYFSRCNSIRVESGCWMLYERPNYQGQQYLLRRGEYPDYQQWMGLSDSIRSR [C76R], -0.904 ± 0.25. The result for ITFYEDRAFQGRSYETTTDCPNLQPYFSRCNSIRVESGCWMLYERPNYQGQQYLLRRGEYPDYQQWMGLSDSIRSQ [C76Q] reads -0.592 ± 0.15. With ITFYEDRAFQGRSYETTTDCPNLQPYFSRCNSIRVESGCWMLYERPNYQGQQYLLRRGEYPDYQQWMGLSDSIRSP [C76P], the abundance fitness was -0.984 ± 0.18. Then ITFYEDRAFQGRSYETTTDCPNLQPYFSRCNSIRVESGCWMLYERPNYQGQQYLLRRGEYPDYQQWMGLSDSIRSW [C76W], with -0.545 ± 0.22.

On to ITFYEDRAFQGRSYETTTDCPNLQPYFSRCNSIRVESGCWMLYERPNYQGQQYLLRRGEYPDYQQWMGLSDSIRSM [C76M], for which the abundance fitness was -0.192 ± 0.14. The result for ITFYEDRAFQGRSYETTTDCPNLQPYFSRCNSIRVESGCWMLYERPNYQGQQYLLRRGEYPDYQQWMGLSDSIRSH [C76H] reads -0.574 ± 0.092; that for ITFYEDRAFQGRSYETTTDCPNLQPYFSRCNSIRVESGCWMLYERPNYQGQQYLLRRGEYPDYQQWMGLSDSIRSY [C76Y], -0.719 ± 0.13; that for ITFYEDRAFQGRSYETTTDCPNLQPYFSRCNSIRVESGCWMLYERPNYQGQQYLLRRGEYPDYQQWMGLSDSIRSI [C76I], 0.074 ± 0.083. In the case of ITFYEDRAFQGRSYETTTDCPNLQPYFSRCNSIRVESGCWMLYERPNYQGQQYLLRRGEYPDYQQWMGLSDSIRSG [C76G], the abundance fitness was 0.116 ± 0.065. With ITFYEDRAFQGRSYETTTDCPNLQPYFSRCNSIRVESGCWMLYERPNYQGQQYLLRRGEYPDYQQWMGLSDSIRSF [C76F], the abundance fitness is -0.539 ± 0.086. The result for ITFYEDRAFQGRSYETTTDCPNLQPYFSRCNSIRVESGCWMLYERPNYQGQQYLLRRGEYPDYQQWMGLSDSIRSE [C76E] reads -0.795 ± 0.32; that for ITFYEDRAFQGRSYETTTDCPNLQPYFSRCNSIRVESGCWMLYERPNYQGQQYLLRRGEYPDYQQWMGLSDSIRSS [C76S], 0.051 ± 0.063; that for ITFYEDRAFQGRSYETTTDCPNLQPYFSRCNSIRVESGCWMLYERPNYQGQQYLLRRGEYPDYQQWMGLSDSIRFC [S75F], -0.979 ± 0.26. The result for ITFYEDRAFQGRSYETTTDCPNLQPYFSRCNSIRVESGCWMLYERPNYQGQQYLLRRGEYPDYQQWMGLSDSIRMC [S75M] reads -0.675 ± 0.13; that for ITFYEDRAFQGRSYETTTDCPNLQPYFSRCNSIRVESGCWMLYERPNYQGQQYLLRRGEYPDYQQWMGLSDSIRYC [S75Y], -0.599 ± 0.25. Then ITFYEDRAFQGRSYETTTDCPNLQPYFSRCNSIRVESGCWMLYERPNYQGQQYLLRRGEYPDYQQWMGLSDSIRAC [S75A], with -0.054 ± 0.093; and ITFYEDRAFQGRSYETTTDCPNLQPYFSRCNSIRVESGCWMLYERPNYQGQQYLLRRGEYPDYQQWMGLSDSIRLC [S75L], with 0.044 ± 0.068.

In the case of ITFYEDRAFQGRSYETTTDCPNLQPYFSRCNSIRVESGCWMLYERPNYQGQQYLLRRGEYPDYQQWMGLSDSIRIC [S75I], the abundance fitness was -0.186 ± 0.15. Turning to ITFYEDRAFQGRSYETTTDCPNLQPYFSRCNSIRVESGCWMLYERPNYQGQQYLLRRGEYPDYQQWMGLSDSIRRC [S75R], the abundance fitness was -0.479 ± 0.069. Then ITFYEDRAFQGRSYETTTDCPNLQPYFSRCNSIRVESGCWMLYERPNYQGQQYLLRRGEYPDYQQWMGLSDSIRQC [S75Q], with -0.327 ± 0.21; and ITFYEDRAFQGRSYETTTDCPNLQPYFSRCNSIRVESGCWMLYERPNYQGQQYLLRRGEYPDYQQWMGLSDSIREC [S75E], with -0.793 ± 0.27; and ITFYEDRAFQGRSYETTTDCPNLQPYFSRCNSIRVESGCWMLYERPNYQGQQYLLRRGEYPDYQQWMGLSDSIRKC [S75K], with -0.59 ± 0.19. Consider ITFYEDRAFQGRSYETTTDCPNLQPYFSRCNSIRVESGCWMLYERPNYQGQQYLLRRGEYPDYQQWMGLSDSIRPC [S75P], for which the abundance fitness is -0.66 ± 0.12. Then ITFYEDRAFQGRSYETTTDCPNLQPYFSRCNSIRVESGCWMLYERPNYQGQQYLLRRGEYPDYQQWMGLSDSIRTC [S75T], with -0.828 ± 0.17; and ITFYEDRAFQGRSYETTTDCPNLQPYFSRCNSIRVESGCWMLYERPNYQGQQYLLRRGEYPDYQQWMGLSDSIRWC [S75W], with -0.875 ± 0.24. Consider ITFYEDRAFQGRSYETTTDCPNLQPYFSRCNSIRVESGCWMLYERPNYQGQQYLLRRGEYPDYQQWMGLSDSIRDC [S75D], for which the abundance fitness was -0.836 ± 0.41.

As to ITFYEDRAFQGRSYETTTDCPNLQPYFSRCNSIRVESGCWMLYERPNYQGQQYLLRRGEYPDYQQWMGLSDSIRGC [S75G], the abundance fitness is -0.069 ± 0.062. The result for ITFYEDRAFQGRSYETTTDCPNLQPYFSRCNSIRVESGCWMLYERPNYQGQQYLLRRGEYPDYQQWMGLSDSIRHC [S75H] reads -0.88 ± 0.29; that for ITFYEDRAFQGRSYETTTDCPNLQPYFSRCNSIRVESGCWMLYERPNYQGQQYLLRRGEYPDYQQWMGLSDSIRCC [S75C], 0.044 ± 0.12. Then ITFYEDRAFQGRSYETTTDCPNLQPYFSRCNSIRVESGCWMLYERPNYQGQQYLLRRGEYPDYQQWMGLSDSIRVC [S75V], with -0.226 ± 0.053.

Values taken from the Human Domainome abundance scans (Beltran et al. 2025).
